# Measured values: patent publication US20160297851A1, “BROAD SPECTRUM […]” (priority 2012, published 2016)
# Legend:
# [1] = molecular target: P. aeruginosa PAO1 SPase (LepB) P84L, in the bacteria (P. aeruginosa), Q9I5G7; experiment: cell-based or functional assay
# [2] = molecular target: E. coli SPase with each of the other 19 amino acids at residue 84, in mutant strains of E. coli; experiment: cell-based or functional assay
binder,measurement,setting,value
"SAGXAY (here or on the partner: C16 fatty acyl (palmitoyl) tail on the N-terminus of N-methyl-D-Ser2; D-Ala3; N-methyl-4-hydroxyphenylglycine (MeHpg) at 5, written X; biaryl bridge between MeHpg5 and Tyr7 (macrocycle MeHpg5-Ala6-Tyr7); free C-terminal carboxyl; the filing counts the lipid tail as position 1) [arylomycin C16]",MIC,[1],8 µg/mL
same,MIC,[2],< 16 µg/mL
